According to publication PMC7308502, “Genome Segregation by the Venus Flytrap Mechanism: Probing the Interaction Between the ParF ATPase and the ParG Centromere Binding Protein” (Frontiers in Molecular Biosciences, 2020):
Each block holds one compound with its values, some of them ahead of it.

Tests used:
[1] = molecular target: T1, ParF (Salmonella enterica, UniProt Q9KJ83); test: sedimentation assay of higher-order assembly; type: binding; conditions: 2 mM nucleotide, 5 mM MgCl2, 30 mM Tris-HCl pH 8.0, 100 mM KCl, 30 °C
T1 construct: full-length, His-tagged (pET-22b(+)), produced in E. coli BL21(DE3); monomer with ADP, dimer and higher-order with ATP
T1 sequence (Q9KJ83 1-206): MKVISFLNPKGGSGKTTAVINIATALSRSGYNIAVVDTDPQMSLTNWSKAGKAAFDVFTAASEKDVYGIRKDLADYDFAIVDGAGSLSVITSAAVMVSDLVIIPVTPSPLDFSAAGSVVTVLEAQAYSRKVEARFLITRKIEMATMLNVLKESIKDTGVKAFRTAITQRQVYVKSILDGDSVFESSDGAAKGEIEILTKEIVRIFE
Excerpt: sedimentation assay of higher-order assembly on ParF | ATP or non-hydrolyzable ATPγS increased the levels of higher-order assemblies of wild-type ParF

[2] = molecular target: T1, ParF; test: fluorescence anisotropy titration; type: binding; conditions: read-out: apparent Kd; 20 mM HEPES, 150 mM NaCl, 1 mM MgCl2, pH 7.0; 0.9 μM labelled compound; possible hydrolysis during measurement
[3] = molecular target: wild-type ParF, His-tagged, purified (plasmid TP228 (in Escherichia coli))
[4] = molecular target: wild-type ParF, His-tagged, purified (plasmid TP228 (in Escherichia coli)); test: co-sedimentation
[5] = molecular target: wild-type ParF fused to the T18 or T25 fragment of Bordetella pertussis adenylate cyclase (plasmid TP228 (in Escherichia coli)); test: two-hybrid

Compound: Nc1ncnc2c1ncn2[C@@H]1O[C@H](COP(=O)(O)OP(=O)(O)OP(=O)(O)O)[C@@H](O)[C@H]1O [ATP]
fold increase in pellet fraction [1]: ~ 2 fold

Compound: Nc1ncnc2c1ncn2[C@@H]1O[C@H](COP(=O)(O)OP(=O)(O)OP(O)(O)=S)[C@@H](O)[C@H]1O [ATPγS]
fold increase in pellet fraction [1]: ~ 2 fold

Compound: CNc1ccccc1C(=O)O[C@H]1[C@@H](O)[C@H](n2cnc3c(N)ncnc32)O[C@@H]1CO[P@@](=O)(O)O[P@](=O)(O)OP(=O)(O)O [MANT-ATP]
Kd [2]: ~500 nM

fold stimulation of ParF ATPase activity by ParG (ParF 1 μM, ParG 0-20 μM, 5 μM ATP) [3]: 20 fold | percent of ParG in the pellet fraction (with ATPγS) [4]: 50%
Compound: ParG, His-tagged, purified (natural protein)

Compound: wild-type ParF fused to the T18 or T25 fragment of Bordetella pertussis adenylate cyclase (natural protein)
β-galactosidase units (β-galactosidase units) [5]: 700

percent of ParF in the pellet fraction (with ParG and ATPγS) [4]: 80%
Compound: wild-type ParF, His-tagged, purified (enzyme)
